Tests used:
Experiment in all cases: cell-based or functional assay
[1] = target: HIV-1 envelope glycoprotein (Env) of isolate MGRM-C-026, clade C (HIV-1)
[2] = target: HIV-1 envelope glycoprotein (Env) of isolate 92TH021, clade AE (HIV-1)
[3] = target: HIV-1 envelope glycoprotein (Env) of isolate 92UG005, clade D (HIV-1)
[4] = target: HIV-1 envelope glycoprotein (Env) of isolate MGRM-C-027, clade C (HIV-1)
[5] = target: HIV-1 envelope glycoprotein (Env) of isolate MGRM-A-010, clade A (HIV-1)
[6] = target: HIV-1 envelope glycoprotein (Env) of isolate 92UG024, clade D (HIV-1)
[7] = target: HIV-1 envelope glycoprotein (Env) of isolate APV6, clade B (HIV-1)
[8] = target: HIV-1 envelope glycoprotein (Env) of isolate CMU02, clade AE (HIV-1)
[9] = target: HIV-1 envelope glycoprotein (Env) of isolate 92BR020, clade B (HIV-1)
[10] = target: HIV-1 envelope glycoprotein (Env) of isolate MGRM-C-028, clade C (HIV-1)
[11] = target: HIV-1 envelope glycoprotein (Env) of isolate JRCSF, clade B (HIV-1) (UniProt P20871)
[12] = target: HIV-1 envelope glycoprotein (Env) of isolate 93IN905, clade C (HIV-1)
[13] = target: HIV-1 envelope glycoprotein (Env) of isolate MGRM-D-001, clade D (HIV-1)
[14] = target: HIV-1 envelope glycoprotein (Env) of isolate JRFL, clade B (HIV-1)
[15] = target: HIV-1 envelope glycoprotein (Env) of isolate NL43, clade B (HIV-1)
[16] = target: HIV-1 envelope glycoprotein (Env) of isolate 92RW020, clade A (HIV-1)
[17] = target: HIV-1 envelope glycoprotein (Env) of isolate MGRM-D-018, clade D (HIV-1)
[18] = target: HIV-1 envelope glycoprotein (Env) of isolate 94UG103, clade A (HIV-1)
[19] = target: HIV-1 envelope glycoprotein (Env) of isolate MGRM-AG-005, clade AG (HIV-1)
[20] = target: HIV-1 envelope glycoprotein (Env) of isolate APV13, clade B (HIV-1)
[21] = target: aMLV envelope protein (negative control pseudovirus)
[22] = target: HIV-1 envelope glycoprotein (Env) of isolate 93UG077, clade A (HIV-1)
[23] = target: HIV-1 envelope glycoprotein (Env) of isolate APV17, clade B (HIV-1)

B1: PGT-135 (5343_B08; 5344_E16) human monoclonal anti-HIV antibody (antibody, V domains shown)
VH: QLQMQESGPGLVKPSETLSLSCTVSGDSIRGGEWGDKDYHWGWVRHSAGKGLEWIGSIHWRGTTHYKESLRRRVSMSIDTSRNWFSLRLASVTAADTAVYFCARHRHHDVFMLVPIAGWFDVWGPGVQVTVSS
VL: EIVMTQSPDTLSVSPGETVTLSCRASQNINKNLAWYQYKPGQSPRLVIFETYSKIAAFPARFVASGSGTEFTLTINNMQSEDVAVYYCQQYEEWPRTFGQGTKVDIK
IC50 (neutralization of pseudovirus) [1]: 0.0123 µg/mL | IC80 (neutralization of pseudovirus) [1]: 0.0562 µg/mL | IC90 (neutralization of pseudovirus) [1]: 0.139 µg/mL | IC95 (neutralization of pseudovirus) [1]: 0.331 µg/mL | IC50 (neutralization of pseudovirus) [2]: > 10 µg/mL | IC80 (neutralization of pseudovirus) [2]: > 10 µg/mL | IC90 (neutralization of pseudovirus) [2]: > 10 µg/mL | IC95 (neutralization of pseudovirus) [2]: > 10 µg/mL | IC50 (neutralization of pseudovirus) [3]: > 10 µg/mL | IC80 (neutralization of pseudovirus) [3]: > 10 µg/mL | IC90 (neutralization of pseudovirus) [3]: > 10 µg/mL | IC95 (neutralization of pseudovirus) [3]: > 10 µg/mL | IC50 (neutralization of pseudovirus) [4]: > 10 µg/mL | IC80 (neutralization of pseudovirus) [4]: > 10 µg/mL | IC90 (neutralization of pseudovirus) [4]: > 10 µg/mL | IC95 (neutralization of pseudovirus) [4]: > 10 µg/mL | IC50 (neutralization of pseudovirus) [5]: > 10 µg/mL | IC80 (neutralization of pseudovirus) [5]: > 10 µg/mL | IC90 (neutralization of pseudovirus) [5]: > 10 µg/mL | IC95 (neutralization of pseudovirus) [5]: > 10 µg/mL | IC50 (neutralization of pseudovirus) [6]: 0.0139 µg/mL | IC80 (neutralization of pseudovirus) [6]: 0.054 µg/mL | IC90 (neutralization of pseudovirus) [6]: 0.122 µg/mL | IC95 (neutralization of pseudovirus) [6]: 0.267 µg/mL | IC50 (neutralization of pseudovirus) [7]: > 10 µg/mL | IC80 (neutralization of pseudovirus) [7]: > 10 µg/mL | IC90 (neutralization of pseudovirus) [7]: > 10 µg/mL | IC95 (neutralization of pseudovirus) [7]: > 10 µg/mL | IC50 (neutralization of pseudovirus) [8]: > 10 µg/mL | IC80 (neutralization of pseudovirus) [8]: > 10 µg/mL | IC90 (neutralization of pseudovirus) [8]: > 10 µg/mL | IC95 (neutralization of pseudovirus) [8]: > 10 µg/mL | IC50 (neutralization of pseudovirus) [9]: 0.104 µg/mL | IC80 (neutralization of pseudovirus) [9]: 0.253 µg/mL | IC90 (neutralization of pseudovirus) [9]: 0.43 µg/mL | IC95 (neutralization of pseudovirus) [9]: 0.72 µg/mL | IC50 (neutralization of pseudovirus) [10]: 2.16 µg/mL | IC80 (neutralization of pseudovirus) [10]: > 10 µg/mL | IC90 (neutralization of pseudovirus) [10]: > 10 µg/mL | IC95 (neutralization of pseudovirus) [10]: > 10 µg/mL | IC50 (neutralization of pseudovirus) [11]: 0.113 µg/mL | IC80 (neutralization of pseudovirus) [11]: 0.503 µg/mL | IC90 (neutralization of pseudovirus) [11]: 1.47 µg/mL | IC95 (neutralization of pseudovirus) [11]: 8.3 µg/mL | IC50 (neutralization of pseudovirus) [12]: 0.0183 µg/mL | IC80 (neutralization of pseudovirus) [12]: 0.0648 µg/mL | IC90 (neutralization of pseudovirus) [12]: 0.136 µg/mL | IC95 (neutralization of pseudovirus) [12]: 0.268 µg/mL | IC50 (neutralization of pseudovirus) [13]: > 10 µg/mL | IC80 (neutralization of pseudovirus) [13]: > 10 µg/mL | IC90 (neutralization of pseudovirus) [13]: > 10 µg/mL | IC95 (neutralization of pseudovirus) [13]: > 10 µg/mL | IC50 (neutralization of pseudovirus) [14]: > 10 µg/mL | IC80 (neutralization of pseudovirus) [14]: > 10 µg/mL | IC90 (neutralization of pseudovirus) [14]: > 10 µg/mL | IC95 (neutralization of pseudovirus) [14]: > 10 µg/mL | IC50 (neutralization of pseudovirus) [15]: 6.79 µg/mL | IC80 (neutralization of pseudovirus) [15]: > 10 µg/mL | IC90 (neutralization of pseudovirus) [15]: > 10 µg/mL | IC95 (neutralization of pseudovirus) [15]: > 10 µg/mL | IC50 (neutralization of pseudovirus) [16]: 0.157 µg/mL | IC80 (neutralization of pseudovirus) [16]: 3.46 µg/mL | IC90 (neutralization of pseudovirus) [16]: > 10 µg/mL | IC95 (neutralization of pseudovirus) [16]: > 10 µg/mL | IC50 (neutralization of pseudovirus) [17]: 0.0433 µg/mL | IC80 (neutralization of pseudovirus) [17]: 0.2 µg/mL | IC90 (neutralization of pseudovirus) [17]: > 10 µg/mL | IC95 (neutralization of pseudovirus) [17]: > 10 µg/mL | IC50 (neutralization of pseudovirus) [18]: > 10 µg/mL | IC80 (neutralization of pseudovirus) [18]: > 10 µg/mL | IC90 (neutralization of pseudovirus) [18]: > 10 µg/mL | IC95 (neutralization of pseudovirus) [18]: > 10 µg/mL | IC50 (neutralization of pseudovirus) [19]: > 10 µg/mL | IC80 (neutralization of pseudovirus) [19]: > 10 µg/mL | IC90 (neutralization of pseudovirus) [19]: > 10 µg/mL | IC95 (neutralization of pseudovirus) [19]: > 10 µg/mL | IC50 (neutralization of pseudovirus) [20]: 0.545 µg/mL | IC80 (neutralization of pseudovirus) [20]: > 10 µg/mL | IC90 (neutralization of pseudovirus) [20]: > 10 µg/mL | IC95 (neutralization of pseudovirus) [20]: > 10 µg/mL | IC50 (neutralization of pseudovirus) [21]: > 10 µg/mL | IC80 (neutralization of pseudovirus) [21]: > 10 µg/mL | IC90 (neutralization of pseudovirus) [21]: > 10 µg/mL | IC95 (neutralization of pseudovirus) [21]: > 10 µg/mL | IC50 (neutralization of pseudovirus) [22]: > 10 µg/mL | IC80 (neutralization of pseudovirus) [22]: > 10 µg/mL | IC90 (neutralization of pseudovirus) [22]: > 10 µg/mL | IC95 (neutralization of pseudovirus) [22]: > 10 µg/mL | IC50 (neutralization of pseudovirus) [23]: > 10 µg/mL | IC80 (neutralization of pseudovirus) [23]: > 10 µg/mL | IC90 (neutralization of pseudovirus) [23]: > 10 µg/mL | IC95 (neutralization of pseudovirus) [23]: > 10 µg/mL

— US20250320281A1
